We go through one substance from publication PMC8137598.

This experiment addresses full-length A82F variant of CYP102A1 with an N-terminal His6 tag (Bacillus megaterium) (UniProt P14779). Put plainly: SEC-MALS.

For the substance “full-length A82F variant of CYP102A1 with an N-terminal His6 tag (from UniProt P14779 1-1049) (enzyme)”, the stoichiometry N is 2.
